This is an account of results in EP4714976A1.

Changes are numbered by the printed parent chain.

B1: 3F5 scFv displayed on phage (scFv)
scFv: EIQLQQSGAELVKPGASVKMSCKASGYTFRYYNMHWVKRTPGQGLEWIGLIYPDNGDTSYNQKFKGKATLTADTSSSTAYMQLSSLTSEDSAVYYCARGGLDYWGQGTTLTVSSGGGGSGGGGSGGGGSDIVLTQSPASLSASVGETVTITCGASENIYGALNWYQRKQGKSPQLLIYGATNLADGMSSRFSGSGSGRQYSLKISSLHPDDVATYYCQNVLSTPYTFGGGTKLEIK
B2: 3C9 scFv displayed on phage (scFv)
scFv: B1 scFv with T28I, V132Q, L133M, T134I
B3: 3B7 scFv displayed on phage (scFv)
scFv: B1 scFv with I2V, L101F, V132Q, L133M, I235L
B4: 3B4 scFv displayed on phage (scFv)
scFv: B1 scFv with I2V, E10D, R30S, K38R, V132Q, L133M, T134I, L140M, I235M
B5: 3E3 scFv displayed on phage (scFv)
scFv: QVQLQQPGAVLVKPGASVRMSCKASGYTFPYYNVHWVKRTPGQGLEWIGLIYPDNGDTSYNQKFTGKATLTADTSSSTAYMQLSSLTSEDSAVYYCARGGLDYWGQGTTLTVSAGGGGSGGGGSGGGGSDVQITQSPASLSASVGETVTITCGASENIYGALNWYQRKQGKSPQLLIYGATNLADGMSSRFSGSGSGRQYSLKISSLHPDDVATYYCQNVLSTPYTFGGGTKLEIK
B6: 3E7 scFv displayed on phage (scFv)
scFv: QVQLQQSGAELVKPGASVKMSCKASGYTFTIYNIHWVRQTPGQGLEWIGLIYPDNGDTSYNQKFKAKATLTADKSSSTAYMQLSSLTSEDSAVYYCARGGFDYWGQGTTLTVSSGGGGSGGGGSGGGGSNIVMTQSQKFMSTSVGDRVSVTCKASQNVGTNVAWYQQKPGQSPKALIYSASYRYSGVPDRFTGSGSGTDFTLTISGVQAEDLADYYCQQHYNTPYTFGGGTKLEIK
B7: 3A8 scFv displayed on phage (scFv)
scFv: B6 scFv with T109S, N130D, G206N, Y216F, N222S, I235M
B8: 3H6 scFv displayed on phage (scFv)
scFv: QVQLQQSGAELVKPGASVKMSCKASGYTFSFYNIHWVRQTPGQGLEWIGLIYPDNGDTSYNQKFKAKATLTADKSSSTAYMQLSSLTSEDSAVYYCARGGFDYWGQGTTLTVSSGGGGSGGGGSGGGGSDIQMTQSPASLSASVGETVTITCRASENIYSYLAWYQQKQGKSPQLLVYNAKTLAEGVPSRFSGSGSGTQFSLKINSLQPEDFGSYYCQHHYGTPYTFGGGTKLEMK
B9: 1D7 scFv displayed on phage (scFv)
scFv: QIQLQQSGAELVKPGASVKMSCKASGYTFRYYNMHWVKRTPGQGLEWIGLIYPDNGDTSYNQKFKGKATLTADTSSSTAYMQLSSLTSEDSAVYYCARGGLDYWGQGTSLTVSSGGGGSGGGGSGGGGSDIQMTQSPSSMSASLGDRITITCQATQDIVKNLNWYQQKPGKPPSFLIYYATELAEGVPSRFSGSGSGSDYSLTISNLESEDFADYYCLQFYEFPLTFGAGTKLELK
B10: 3C7 scFv displayed on phage (scFv)
scFv: EIQLQQSGAELVKPGASVKMSCKASGYIFRNYYIHWVKRTPGQGLEWIGAIYPDNGDTSYNQRFKVKATLTADTSSSTAYMQLSSLTSEDSAVYYCARAFTYWGQGTTLTVSSGGGGSGGGGSGGGGSDIQMIQSPASLSASVGETVTITCGASENIYGALNWYQRKQGKSPQLLIYGATNLADGMSSRFSGSGSGRQYSLKISSLHPDDVATYYCQNVLSTPYTFGGGTKLEIK
B11: 3F10 scFv displayed on phage (scFv)
scFv: EVQLQQSGAELVKPGASVKMSCKASGYTFSFYNIHWVRQTPGQGLEWIGLIYPDNGDTSYNQKFKAKATLTADKSSSTAYMQLSSLTSEDSAVYYCARGGFDYWGQGTTLTVSSGGGGSGGGGSGGGGSDVLMTQSPASLSASVGETVTITCGASENIYGALNWYQRKQGKSPQLLIYGATNLADGMSSRFSGSGSGRQYSLKISSLHPDDVATYYCQNVLSTPYTFGGGTKLEIK
B12: 3A3 scFv displayed on phage (scFv)
scFv: QVQLQQSGAELVKPGASVKMSCKASGYTFTTYNIHWVRQTPGQGLEWIGLIYPDNGDTSYNQKFKAKATLTADKSSSTAYMHLSSLTSEDSAVYYCARGGFDYWGQGTTLTVSSGGGGSGGGGSGGGGSDIVMTQSHKFMSTSVGDRVSITCKASQDVNTDVSWYQQKPGQSPKLLIYSASYRYTGVPTRFTGSGSGTDFTFTISGVQAEDLADYYCQQHYNTPYTFGGGTRLEIK
B13: 1B8 scFv displayed on phage (scFv)
scFv: QIQLQQSGAELVKPGASVKMSCKASGYTFASYNLHWVKQTPGQGLEWIGLIYPENGDTSYNQKFKGKATLTADTSSTTAYIQLSSLTSEDSAVYFCARGGFDYWGQGTSLTVSSGGGGSGGGGSGGGGSDIKMTQSPASLSASVGETVTITCGASENIYGALNWYQRKQGKSPQLLIYGATNLADGMSSRFSGSGSGRQYSLKISSLHPDDVATYYCQNVLSTPYTFGGGTKLEIK
B14: 1A3 scFv displayed on phage (scFv)
scFv: B13 scFv with I2V, S7P, T74K, T77S, S109T, S114Q, K132Q
B15: 2B2 scFv displayed on phage (scFv)
scFv: QLQLQQSGAELVKPGASVKMSCKASGYTFASYNLHWVKQTPGQGLEWIGLIYPENGDTSYNQKFKDKATLTADKSSTTAYIQLSSLASEDSAVYFCARGGFDYWGQGTTLTVSSGGGGSGGGGSGGGGSDIVMTQSQKFMSTSVGDRVSVTCKASQNVGTNVAWYQQKPGQSPKALIYSASYRYSGVPDRFTGSGSGTDYTLTISSVQAEDLALYYCQQHYSTPYTFGGGTKLELK
B16: 3G10 scFv displayed on phage (scFv)
scFv: EVQLQQSGPELVKPGASVKMSCKASGYTFATYNMHWVKQTTGQGLEWIGAIYPDNGDTFYNRKFKDKATLTADKSSTTAYMQLSSLTSEDSAVYYCARGDFAYWGQGTLVTVSAGGGGSGGGGSGGGGSDVLMTQSPASLSASVGETVTITCGASENIYGALNWYQRKQGKSPQLLIYGATNLADGMSSRFSGSGSGRQYSLKISSLHPDDVATYYCQNVLSTPYTFGGGTKLEMK
B17: 2B1 scFv-Fc (Fc fusion)
chain: EVQLQQSGAELVKPGASVKMSCKASGYTFASYNLHWVKQTPGQGLEWIGLIYPENGDTSYNQKFKGKATLTADKSSSTAYIQLSSLTSEDSAVYFCARGGFDYWGQGTSLTVSSGGGGSGGGGSGGGGSDIQMIQSPASLSVSVGETVTITCRASENIYSNLAWYQQKQGKSPQLLVYNAKTLADGVPSRFSGSGSGTQYSLKINSLQPEDFGSYYCQHFWSTPYTFGGGTKLEIKESKYGPPCPPCPAPEAAGGPSVFLFPPKPKDTLMISRTPEVTCVVVDVSQEDPEVQFNWYVDGVEVHNAKTKPREEQFNSTYRVVSVLTVLHQDWLNGKEYKCKVSNKGLPSSIEKTISKAKGQPREPQVYTLPPSQEEMTKNQVSLTCLVKGFYPSDIAVEWESNGQPENNYKTTPPVLDSDGSFFLYSKLTVDKSRWQEGNVFSCSVMHEALHNHYTQKSLSLSLG
B18: 3A12 scFv-Fc (Fc fusion)
chain: EVQLQQSGAELVKPGASVKMSCKASGYTFSFYNVHWVRQTPGQGLEWIGLIYPDNGDTSYNQKFKAKATLTADKSSSAAYMQLSSLTSEDSAVYYCARGGFDYWGQGTSLTVSSGGGGSGGGGSGGGGSDIVMTQSHKFMSTSVGDRVNITCKASQDVSTAVAWYQQKPGQSPKLLIYSASYRYSGVPDRFTGSGSGTDFTFTISSVQAEDLAVYYCQQHYSTPYTFGGGTKLEMKESKYGPPCPPCPAPEAAGGPSVFLFPPKPKDTLMISRTPEVTCVVVDVSQEDPEVQFNWYVDGVEVHNAKTKPREEQFNSTYRVVSVLTVLHQDWLNGKEYKCKVSNKGLPSSIEKTISKAKGQPREPQVYTLPPSQEEMTKNQVSLTCLVKGFYPSDIAVEWESNGQPENNYKTTPPVLDSDGSFFLYSKLTVDKSRWQEGNVFSCSVMHEALHNHYTQKSLSLSLG

Sequence of extracellular domain of the FGFR2b protein (NP_075259.4) (P21802 other isoform, or with tags, fused parts or gaps): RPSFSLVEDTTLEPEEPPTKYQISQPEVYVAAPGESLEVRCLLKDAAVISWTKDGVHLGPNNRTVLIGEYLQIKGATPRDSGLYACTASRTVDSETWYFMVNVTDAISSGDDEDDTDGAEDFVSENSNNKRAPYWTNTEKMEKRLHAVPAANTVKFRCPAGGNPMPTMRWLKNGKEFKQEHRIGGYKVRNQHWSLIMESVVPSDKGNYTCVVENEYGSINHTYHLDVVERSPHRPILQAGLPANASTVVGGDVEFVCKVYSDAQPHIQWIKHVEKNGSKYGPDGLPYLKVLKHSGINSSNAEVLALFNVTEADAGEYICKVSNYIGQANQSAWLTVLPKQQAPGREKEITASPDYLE
Sequence of recombinant mouse FGFR2b (mouse) (P21803 22-377): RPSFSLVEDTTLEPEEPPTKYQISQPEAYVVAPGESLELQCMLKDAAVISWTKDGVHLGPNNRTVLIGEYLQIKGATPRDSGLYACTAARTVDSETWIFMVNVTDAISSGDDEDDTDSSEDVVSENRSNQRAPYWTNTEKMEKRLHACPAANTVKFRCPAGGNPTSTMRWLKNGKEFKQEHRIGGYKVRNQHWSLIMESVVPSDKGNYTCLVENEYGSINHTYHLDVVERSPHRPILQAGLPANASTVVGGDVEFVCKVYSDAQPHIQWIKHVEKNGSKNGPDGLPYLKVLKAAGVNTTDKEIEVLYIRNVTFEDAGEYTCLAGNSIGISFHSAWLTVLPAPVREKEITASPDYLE
Sequence of FGFR1 (acro) (P11362 22-376): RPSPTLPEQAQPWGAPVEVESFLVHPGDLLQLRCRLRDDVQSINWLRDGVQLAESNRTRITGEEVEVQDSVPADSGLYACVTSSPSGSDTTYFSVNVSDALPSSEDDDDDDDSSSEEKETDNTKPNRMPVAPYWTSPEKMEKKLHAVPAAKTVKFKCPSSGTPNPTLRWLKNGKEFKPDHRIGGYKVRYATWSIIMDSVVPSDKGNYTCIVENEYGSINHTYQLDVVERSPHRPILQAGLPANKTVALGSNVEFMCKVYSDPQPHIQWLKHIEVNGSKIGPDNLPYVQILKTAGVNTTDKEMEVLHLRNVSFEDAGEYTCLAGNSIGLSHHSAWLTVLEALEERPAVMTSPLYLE

The first assay has as its target extracellular domain of the FGFR2b protein (NP_075259.4) (UniProt P21802). As to the kind of experiment: phage ELISA.
B1 yielded an OD (450 nm) value of 1.94.

In turn, B2 showed an OD (450 nm) value of 2.08.

As for B3, the OD (450 nm) value was determined as 2.03.

B4 yielded an OD (450 nm) value of 2.47.

For B5, the OD (450 nm) value was 2.28.

For the molecule B6, the OD (450 nm) value was 1.88.

In turn, B7 gave an OD (450 nm) value of 2.22.

B8 registered an OD (450 nm) value of 2.29.

Molecule B9 gave an OD (450 nm) value of 2.14.

Molecule B10 yielded an OD (450 nm) value of 2.02.

B11 came in with an OD (450 nm) value of 1.85.

Take B12: the OD (450 nm) value was found to be 2.33.

In turn, B13 gave an OD (450 nm) value of 2.65.

The molecule B14 returned an OD (450 nm) value of 2.67.

In turn, B15 yielded an OD (450 nm) value of 2.38.

Molecule B16 displayed an OD (450 nm) value of 1.95.

A further assay addresses FGFR1 (acro) (UniProt P11362). The experiment in a line: ELISA, antibody 10 µg/mL.
Molecule B17 yielded an OD (450 nm) value of 0.076.

B18 had an OD (450 nm) value of 0.076.

The next assay addresses recombinant mouse FGFR2b (mouse) (UniProt P21803). The experiment in a line: ELISA, antibody 1ug/mL. In general terms: In an ELISA, binding on a coated surface is turned into a signal by an enzyme label.
B17: the OD (450 nm) value was found to be 2.72.

Turning to B18, the OD (450 nm) value was 2.91.

The next assay shares this target. As to the kind of experiment: BLI, antibody on AHC2 sensor. A general note: In BLI a coated tip is dipped into the sample, and binding shifts an interference pattern.
B17: the Kd (as a rule, the concentration at which binding is half-saturated) was found to be 23 nM; the koff (in general, a measure of how fast the partners let go of each other) was 0.00126 s⁻¹; the kon (commonly a measure of how fast the partners come together) was determined as 54800 M⁻¹ s⁻¹.

For B18, the Kd is 10.7 nM, the koff is 0.000485 s⁻¹ and the kon is 45400 M⁻¹ s⁻¹.
